Data as given in patent US20240261333A1, “NOVEL TARGETS FOR ENHANCING ANTI-TUMOR IMMUNITY” (THE BROAD INSTITUTE, INC., priority 2021, published 2024).
Each block holds one molecule with its values, some of them ahead of it.

Target: T1, B3GNT2 (Homo sapiens, UniProt Q9NY97)
T1 construct: The respective ORFs of candidate genes [CD274 (NM_014143), MCL1 (NM_021960), JUNB (NM_002229), and B3GNT2 (NM_006577)] were synthesized; expressed in transfected cells; host or cells: A375 melanoma cells (lentiviral ORF overexpression)
T1 sequence (Q9NY97 1-397): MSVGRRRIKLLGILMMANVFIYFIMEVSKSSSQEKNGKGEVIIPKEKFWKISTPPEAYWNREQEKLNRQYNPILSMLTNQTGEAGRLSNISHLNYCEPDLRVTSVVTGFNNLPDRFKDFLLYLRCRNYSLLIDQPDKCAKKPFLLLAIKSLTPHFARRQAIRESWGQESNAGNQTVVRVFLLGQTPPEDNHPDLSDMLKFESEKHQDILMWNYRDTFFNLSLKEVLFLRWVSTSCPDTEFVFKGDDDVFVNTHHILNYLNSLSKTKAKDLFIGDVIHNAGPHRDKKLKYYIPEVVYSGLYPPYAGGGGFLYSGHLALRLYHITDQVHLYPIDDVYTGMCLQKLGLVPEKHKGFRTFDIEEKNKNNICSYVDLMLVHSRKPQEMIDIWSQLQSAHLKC
Experiment: Co-IP of FLAG-tagged B3GNT2 followed by mass spectrometry
Format: cell-based
Parameters: C-term IgG / C-term flag: unit not given here
Details: mass spectrometry count, unit not given; for C-term flag / N-term FLAG: Co-IP with FLAG antibody; for C-term flag / C-term IgG: C-terminally FLAG-tagged B3GNT2; for N-term FLAG / N-term IgG: N-terminally FLAG-tagged B3GNT2; for C-term IgG / N-term IgG: Co-IP with IgG control antibody
Method in brief: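 Co-purifying proteins were identified by fractionated nano-LC–MS/MS on an Orbitrap Elite, run data-dependent. Beforehand, lysates in 1% Triton X-100/HEPES buffer were incubated overnight at 4° C with anti-FLAG or […] and pulled down on Protein A/G magnetic beads for 4 h. Duplicate biological replicates.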

B1: MYO1D (protein)
chain: AEQESLEFGKADFVLMDTVSMPEFMANLRLRFEKGRIYTFIGEVVVSVNPYKLLNIYGRDTIEQYKGRELYERPPHLFAIADAAYKAMKRRSKDTCIVISGESGAGKTEASKYIMQYIAAITNPSQRAEVERVKNMLLKSNCVLEAFGNAKTNRNDNSSRFGKYMDINFDFKGDPIGGHINNYLLEKSRVIVQQPGERSFHSFYQLLQGGSEQMLRSLHLQKSLSSYNYIHVGAQLKSSINDAAEFRVVADAMKVIGFKPEEIQTVYKILAAILHLGNLKFVVDGDTPLIENGKVVSIIAELLSTKTDMVEKALLYRTVATGRDIIDKQHTEQEASYGRDAFAKAIYERLFCWIVTRINDIIEVKNYDTTIHGKNTVIGVLDIYGFEIFDNNSFEQFCINYCNEKLQQLFIQLVLKQEQEEYQREGIPWKHIDYFNNQIIVDLVEQQHKGIIAILDDACMNVGKVTDEMFLEALNSKLGKHAHFSSRKLCASDKILEFDRDFRIRHYAGDVVYSVIGFIDKNKDTLFQDFKRLMYNSSNPVLKNMWPEGKLSITEVTKRPLTAATLFKNSMIALVDNLASKEPYYVRCIKPNDKKSPQIFDDERCRHQVEYLGLLENVRVRRAGFAFRQTYEKFLHRYKMISEFTWPNHDLPSDKEAVKKLIERCGFQDDVAYGKTKIFIRTPRTLFTLEELRAQMLIRIVLFLQKVWRGTLARMRYKRTKAALTIIRYYRRYKVKSYIHEVARRFHGVKTMRDYGKHVKWPSPPKVLRRFEEALQTIFNRWRASQLIKSIPASDLPQVRAKVAAVEMLKGQRADLGLQRAWEGNYLASKPDTPQTSGTFVPVANELKRKDKYMNVLFSCHVRKVNRFSKVEDRAIFVTDRHLYKMDPTKQYKVMKTIPLYNLTGLSVSNGKDQLVVFHTKDNKDLIVCLFSKQPTHESRIGELVGVLVNHFKSEKRHLQVNVTNPVQCSLHGKKCTVSVETRLNQPQPDFTKNRSGFILSVPGN
C-term flag: 2 | N-term FLAG: 0 | C-term IgG: 0 | N-term IgG: 0

B3: SLC25A10 (protein)
chain: MAAEARVSRWYFGGLASCGAACCTHPLDLLKVHLQTQQEVKLRMTGMALRVVRTDGILALYSGLSASLCRQMTYSLTRFAIYETVRDRVAKGSQGPLPFHEKVLLGSVSGLAGGFVGTPADLVNVRMQNDVKLPQGQRRNYAHALDGLYRVAREEGLRRLFSGATMASSRGALVTVGQLSCYDQAKQLVLSTGYLSDNIFTHFVASFIAAAGDEPPPQGGCATFLCQPLDVLKTRLMNSKGEYQGVFHCAVETAKLGPLAFYKGLVPAGIRLIPHTVLTFVFLEQLRKNFGIKVPS
C-term flag: 6 | N-term FLAG: 5 | C-term IgG: 0 | N-term IgG: 0

B4: HLA-A (protein)
MHC heavy: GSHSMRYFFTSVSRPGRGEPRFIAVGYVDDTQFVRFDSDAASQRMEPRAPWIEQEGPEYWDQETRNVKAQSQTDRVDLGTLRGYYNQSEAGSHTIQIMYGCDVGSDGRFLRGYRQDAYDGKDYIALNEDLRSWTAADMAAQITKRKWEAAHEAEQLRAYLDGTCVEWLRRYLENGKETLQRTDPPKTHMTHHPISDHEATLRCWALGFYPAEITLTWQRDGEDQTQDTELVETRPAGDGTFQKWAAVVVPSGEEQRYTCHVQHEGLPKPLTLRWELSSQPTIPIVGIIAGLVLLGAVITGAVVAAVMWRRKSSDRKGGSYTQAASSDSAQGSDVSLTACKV
C-term flag: 4 | N-term FLAG: 6 | C-term IgG: 0 | N-term IgG: 0

B5: ACSL3 (protein)
chain: MNNHVSSKPSTMKLKHTINPILLYFIHFLISLYTILTYIPFYFFSESRQEKSNRIKAKPVNSKPDSAYRSVNSLDGLASVLYPGCDTLDKVFTYAKNKFKNKRLLGTREVLNEEDEVQPNGKIFKKVILGQYNWLSYEDVFVRAFNFGNGLQMLGQKPKTNIAIFCETRAEWMIAAQACFMYNFQLVTLYATLGGPAIVHALNETEVTNIITSKELLQTKLKDIVSLVPRLRHIITVDGKPPTWSEFPKGIIVHTMAAVEALGAKASMENQPHSKPLPSDIAVIMYTSGSTGLPKGVMISHSNIIAGITGMAERIPELGEEDVYIGYLPLAHVLELSAELVCLSHGCRIGYSSPQTLADQSSKIKKGSKGDTSMLKPTLMAAVPEIMDRIYKNVMNKVSEMSSFQRNLFILAYNYKMEQISKGRNTPLCDSFVFRKVRSLLGGNIRLLLCGGAPLSATTQRFMNICFCCPVGQGYGLTESAGAGTISEVWDYNTGRVGAPLVCCEIKLKNWEEGGYFNTDKPHPRGEILIGGQSVTMGYYKNEAKTKADFFEDENGQRWLCTGDIGEFEPDGCLKIIDRKKDLVKLQAGEYVSLGKVEAALKNLPLVDNICAYANSYHSYVIGFVVPNQKELTELARKKGLKGTWEELCNSCEMENEVLKVLSEAAISASLEKFEIPVKIRLSPEPWTPETGLVTDAFKLKRKELKTHYQADIERMYGRK
C-term flag: 5 | N-term FLAG: 5 | C-term IgG: 0 | N-term IgG: 0

B8: SFXN3 (protein)
chain: MGELPLDINIQEPRWDQSTFLGRARHFFTVTDPRNLLLSGAQLEASRNIVQNYRAGVVTPGITEDQLWRAKYVYDSAFHPDTGEKVVLIGRMSAQVPMNMTITGCMLTFYRKTPTVVFWQWVNQSFNAIVNYSNRSGDTPITVRQLGTAYVSATTGAVATALGLKSLTKHLPPLVGRFVPFAAVAAANCINIPLMRQRELQVGIPVADEAGQRLGYSVTAAKQGIFQVVISRICMAIPAMAIPPLIMDTLEKKDFLKRRPWLGAPLQVGLVGFCLVFATPLCCALFPQKSSIHISNLEPELRAQIHEQNPSVEVVYYNKGL
C-term flag: 2 | N-term FLAG: 0 | C-term IgG: 0 | N-term IgG: 0

More lines, now with the values ahead:

C-term flag: 11 | N-term FLAG: 0 | C-term IgG: 0 | N-term IgG: 0
B2: TM9SF3 (protein)
chain: DEHEHTYQDKEEVVLWMNTVGPYHNRQETYKYFSLPFCVGSKKSISHYHETLGEALQGVELEFSGLDIKFKDDVMPATYCEIDLDKEKRDAFVYAIKNHYWYQMYIDDLPIWGIVGEADENGEDYYLWTYKKLEIGFNGNRIVDVNLTSEGKVKLVPNTKIQMSYSVKWKKSDVKFEDRFDKYLDPSFFQHRIHWFSIFNSFMMVIFLVGLVSMILMRTLRKDYARYSKEEEMDDMDRDLGDEYGWKQVHGDVFRPSSHPLIFSSLIGSGCQIFAVSLIVIIVAMIEDLYTERGSMLSTAIFVYAATSPVNGYFGGSLYARQGGRRWIKQMFIGAFLIPAMVCGTAFFINFIAIYYHASRAIPFGTMVAVCCICFFVILPLNLVGTILGRNLSGQPNFPCRVNAVPRPIPEKKWFMEPAVIVCLGGILPFGSIFIEMYFIFTSFWAYKIYYVYGFMMLVLVILCIVTVCVTIVCTYFLLNAEDYRWQWTSFLSAASTAIYVYMYSFYYYFFKTKMYGLFQTSFYFGYMAVFSTALGIMCGAIGYMGTSAFVRKIYTNVKID

C-term flag: 63 | N-term FLAG: 76 | C-term IgG: 14 | N-term IgG: 8
B6: TUBA1C (protein, UniProt Q9BQE3 1-449, looked up)
Tubulin alpha-1C chain: MRECISIHVGQAGVQIGNACWELYCLEHGIQPDGQMPSDKTIGGGDDSFNTFFSETGAGKHVPRAVFVDLEPTVIDEVRTGTYRQLFHPEQLITGKEDAANNYARGHYTIGKEIIDLVLDRIRKLADQCTGLQGFLVFHSFGGGTGSGFTSLLMERLSVDYGKKSKLEFSIYPAPQVSTAVVEPYNSILTTHTTLEHSDCAFMVDNEAIYDICRRNLDIERPTYTNLNRLISQIVSSITASLRFDGALNVDLTEFQTNLVPYPRIHFPLATYAPVISAEKAYHEQLTVAEITNACFEPANQMVKCDPRHGKYMACCLLYRGDVVPKDVNAAIATIKTKRTIQFVDWCPTGFKVGINYQPPTVVPGGDLAKVQRAVCMLSNTTAVAEAWARLDHKFDLMYAKRAFVHWYVGEGMEEGEFSEAREDMAALEKDYEEVGADSADGEDEGEEY

C-term flag: 2 | N-term FLAG: 0 | C-term IgG: 0 | N-term IgG: 0
B7: SLC25A22 (protein)
chain: MADKQISLPAKLINGGIAGLIGVTCVFPIDLAKTRLQNQQNGQRVYTSMSDCLIKTVRSEGYFGMYRGAAVNLTLVTPEKAIKLAANDFFRHQLSKDGQKLTLLKEMLAGCGAGTCQVIVTTPMEMLKIQLQDAGRIAAQRKILAAQGQLSAQGGAQPSVEAPAAPRPTATQLTRDLLRSRGIAGLYKGLGATLLRDVPFSVVYFPLFANLNQLGRPASEEKSPFYVSFLAGCVAGSAAAVAVNPCDVVKTRLQSLQRGVNEDTYSGILDCARKILRHEGPSAFLKGAYCRALVIAPLFGIAQVVYFLGIAESLLGLLQDPQA
